Laboratory results as given in patent US20200308290A1 (AbbVie / Abbott, published 2020).
Where a chain is given by its changes, count along the chain named. Names and notes keep the numbering of the source. Read-outs that look alike come from different tables or passages of the source.

What was measured:
[1] = target: T1, human CD25 (recombinant soluble) (human, UniProt P01589 22-240); test: competition ELISA on plate-coated CD25: competitor antibody titrated against biotinylated daclizumab, OD415
T1 construct: extracellular domain; bought protein; also called IL2-Rα; recombinant human IL2-Rα
T1 sequence (looked up): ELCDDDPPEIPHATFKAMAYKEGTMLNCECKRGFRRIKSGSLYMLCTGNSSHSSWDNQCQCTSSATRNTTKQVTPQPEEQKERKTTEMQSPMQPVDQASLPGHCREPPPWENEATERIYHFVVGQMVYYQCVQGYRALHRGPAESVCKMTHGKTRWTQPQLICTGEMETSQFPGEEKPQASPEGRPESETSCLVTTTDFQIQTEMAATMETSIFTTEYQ

[2] = target: T1, human CD25 (recombinant soluble); test: competitive ELISA with biotinylated daclizumab on CD25
Protocol: Wells of 96-well ELISA plates (Nunc-Immuno MaxiSorp plates, Nalge Nunc, Rochester, N.Y.) were coated with 100 μL of 0.2 μg/mL CD25 (Pepro Tech Inc., Rocky Hill, N.J.) in 0.2 M sodium carbonate-bicarbonate buffer (pH 9.4, Pierce, Rockford, Ill.) overnight at 4° C. After washing with Wash Buffer, wells were blocked with 200 μL of Superblock Blocking Buffer (Pierce, Rockford, Ill.) for 30 min and then washed. […] The plate was then washed with washing buffer three times. After washing, 100 μL of 1 μg/mL HRP-conjugated Streptavidin (Pierce) diluted in ELISA buffer was added to each well. After 30 minutes of incubation at room temperature, plates were washed and bound antibodies were detected by addition of ABTS substrate (Kirkegaard & Perry Laboratories, Gaithersburg, Md.). […] PRISM (GraphPad, San Diego) and reported as IC₅₀ wild type/IC₅₀ mutant (fold improvement over wild type control).

human CD25 [3] = target: T2, human CD25 (human, UniProt P01589 22-213, limits assumed); test: SPR (BIAcore)
T2 construct: Recombinant soluble human CD25, coated on plates (ELISA) or injected over captured antibody (BIAcore); also called hCD25; IL2-R alpha
T2 sequence (looked up): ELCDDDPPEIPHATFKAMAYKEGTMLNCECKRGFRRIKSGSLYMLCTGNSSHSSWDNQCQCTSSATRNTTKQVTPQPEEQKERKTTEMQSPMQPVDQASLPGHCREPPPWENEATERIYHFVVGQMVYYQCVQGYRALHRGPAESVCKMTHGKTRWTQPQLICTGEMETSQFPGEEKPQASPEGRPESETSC

human CD25 [4] = target: T2, human CD25; test: competition ELISA vs biotinylated daclizumab, fold over wild type
human CD25 [5] = target: T2, human CD25; test: SPR (BIAcore); remark: listed apart in the source
human CD25 on cells = target: T3, human CD25 on cells (human, UniProt P01589 22-272); test: cell-based or functional assay
T3 sequence (looked up): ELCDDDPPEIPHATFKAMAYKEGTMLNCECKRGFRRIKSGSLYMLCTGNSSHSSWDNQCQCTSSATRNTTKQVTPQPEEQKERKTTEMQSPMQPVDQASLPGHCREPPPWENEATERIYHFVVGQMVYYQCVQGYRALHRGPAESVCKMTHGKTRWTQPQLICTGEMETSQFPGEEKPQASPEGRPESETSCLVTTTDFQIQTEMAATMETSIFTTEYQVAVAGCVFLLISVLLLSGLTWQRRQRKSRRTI

cynomolgous monkey CD25 = target: T4, cynomolgous monkey CD25 (cynomolgous monkey); test: SPR (BIAcore), cynomolgous CD25
T4 construct: also called cmCD25; cm

human CD25 [6] = target: T2, human CD25; test: competition ELISA vs biotinylated daclizumab, fold over wild type; remark: listed apart in the source
[7] = target: T1, human CD25 (recombinant soluble); test: competition ELISA on plate-coated CD25: competitor antibody titrated against biotinylated daclizumab, OD415; remark: listed apart in the source
CD25 (recombinant) [8] = target: T5, CD25 (recombinant) (human, UniProt P01589 22-213, limits assumed); test: SPR (BIAcore)
T5 construct: bought protein; also called IL2-R alpha; IL2-Rα
T5 sequence (looked up): T2 sequence (looked up)

CD25 (recombinant) [9] = target: T5, CD25 (recombinant); test: ELISA, relative to wild type; * = similar to WT
[10] = target: T6, recombinant human CD25 (IL2-Rα) (human, UniProt P01589 22-213, limits assumed); test: SPR (BIAcore), affinity benchmarked to DAC-HYP, n=3
T6 construct: Bought protein; also called recombinant human IL2-Rα; recombinant soluble human CD25
T6 sequence (looked up): T2 sequence (looked up)
Protocol: Double referencing was applied in each analysis to eliminate background responses from reference surface and buffer only control (0 nM). […] Each set of experiments was performed three times to assess the standard deviation of the data.
Modified antibody proteins were tested for binding affinity using a surface plasmon resonance assay format in a BIAcore device. […] Recombinant soluble human CD25 was flowed over the sensor chip and changes in mass were detected. The data was interpreted to yield kₐ, kd and KD values for all the proteins tested.

[11] = target: T6, recombinant human CD25 (IL2-Rα); test: direct-binding ELISA on plate-coated recombinant human IL2-Rα; EC50 benchmarked to DAC-HYP
Protocol: MaxiSorp ELISA plates (Nunc Nalge International) were coated overnight at 4° C. with 100 μl/well of a 50 ng/ml solution of recombinant human IL2-Rα (R&D Systems or PeproTech, Inc., Rocky Hill, N.J.) in DPBS (Invitrogen Corporation), washed with Wash Buffer (PBS containing 0.1% Tween 20), and blocked for 30 min at room temperature with 200 μl/well of SuperBlock Blocking Buffer in TBS (Pierce Chemical Company). After washing with Wash Buffer, test antibodies (starting at 4 μg/ml and serially diluted 3-fold) in 100 μl/well of ELISA buffer (PBS containing 1% BSA and 0.1% Tween 20) were added in duplicate. After incubating the plates for 1 hr at room temperature, and washing with Wash Buffer, bound antibodies were detected using 100 μl/well of a 1:20,000 dilution of HRP-conjugated goat anti-human IgG (Southern Biotechnology Associates, Inc.) in ELISA buffer. After incubating for 1 hr at room temperature, and washing with Wash Buffer, color development was performed by adding 150 μl/well of TMB Peroxidase Substrate/Peroxidase Solution B (KPL, Inc.). After incubating for 8 min at room temperature, color development was stopped by adding 50 μl/well of 2 N sulfuric acid. Absorbance was read at 450 nm.

[12] = target: T6, recombinant human CD25 (IL2-Rα); test: SPR (BIAcore), antibody captured by anti-human Fc, soluble human CD25 as analyte, n=3
Protocol: For this capture approach, 30 μg/ml of GAHFc was immobilized to achieve a high response unit (20,000 RU) on each flow cell on the Research-grade CMS sensor chip using the BIAcore amine coupling reagents (N-ethyl-N′-dimethylamino-propylcarbodiimide, EDC; N-hydroxysuccinimide, NHS; and ethanolamine HCl, pH 8.5). […] A 3 min association phase of CD25 was followed by a 15 min injection of HBS-P running buffer (10 mM HEPES, 150 mM sodium chloride, 0.005% P-20 surfactant, pH 7.4) to monitor dissociation for each binding cycle, with a different CD25 concentration per cycle. The surface was regenerated with 20 mM HCl at 100 μl/min flow rate at the end of each cycle. […] Double referencing was applied in each analysis to eliminate background responses from reference surface and buffer only control (0 nM). […] Each set of experiments was performed three times to assess the standard deviation of the data.
Modified antibody proteins were tested for binding affinity using a surface plasmon resonance assay format in a BIAcore device. […] Recombinant soluble human CD25 was flowed over the sensor chip and changes in mass were detected.

B1: NuhuTacVH with daclizumabVL (antibody, V domains shown)
VH: EVQLVQSGAEVKKPGASVKVSCKASGYTFTSYRMHWVRQAPGQGLEWIGYINPSTGYTEYNQKFKDKATMTADKSISTAYMELSSLRSEDTAVYYCARGGGVFDYWGQGTLVTVSS
VL: DIQMTQSPSTLSASVGDRVTITCSASSSISYMHWYQQKPGKAPKLLIYTTSNLASGVPARFSGSGSGTEFTLTISSLQPDDFATYYCHQRSTYPLTFGQGTKVEVK
notes: combination antibody
- EC50 [1]: 0.47 µg/mL

B2: QRKFH (antibody, IgG1, name in Kabat numbering, V domains shown)
VH: QVQLVQSGAEVKKPGSSVKVSCKASGYTFTSYRMHWVRQAPGQGLEWIGYIQPRKGFTHYNQKFKDKATITADESTNTAYMELSSLRSEDTAVYYCARGGGVFDYWGQGTLVTVSS
VL: B1 VL
notes: soluble IgG1 from the VH library; Kabat numbers; also called VH variant QRKFH
- fold affinity over the parental antibody [2]: ~10 fold

B3: RKGFE (antibody, IgG1, name in Kabat numbering, V domains shown)
VH: B2 VH with Q52R, R54K, K55G, H59E
VL: B1 VL
notes: soluble IgG1 from the VH library; Kabat numbers; also called VH variant RKGFE
- fold affinity over the parental antibody [2]: ~10 fold

B4: RKGFN (antibody, IgG1, name in Kabat numbering, V domains shown)
VH: B2 VH with Q52R, R54K, K55G, H59N
VL: B1 VL
notes: soluble IgG1 from the VH library; Kabat numbers; also called VH variant RKGFN
- fold affinity over the parental antibody [2]: ~10 fold

B5: RRGFE (antibody, IgG1, name in Kabat numbering, V domains shown)
VH: B2 VH with Q52R, K55G, H59E
VL: B1 VL
notes: soluble IgG1 from the VH library; Kabat numbers; also called VH variant RRGFE
- fold affinity over the parental antibody [2]: ~10 fold

B6: RRKFE (antibody, IgG1, name in Kabat numbering, V domains shown)
VH: B2 VH with Q52R, H59E
VL: B1 VL
notes: soluble IgG1 from the VH library; Kabat numbers; also called VH variant RRKFE
- fold affinity over the parental antibody [2]: ~10 fold

B7: SNKYL (antibody, IgG1, name in Kabat numbering, V domains shown)
VH: B2 VH with Q52S, R54N, F57Y, H59L
VL: B1 VL
notes: soluble IgG1 from the VH library; Kabat numbers; also called VH variant SNKYL
- fold affinity over the parental antibody [2]: ~10 fold

B8: Variant C9 (antibody, name in Kabat numbering, V domains shown)
VH: B2 VH with Q52R, R54K, K55R, F57Y, H59Q
VL: B1 VL
notes: Isotype as printed: G1 fa
- Kd (human CD25 [3]): 0.181 nM
- ELISA fold improvement (human CD25 [4]): 3.97 fold

B9: Variant C10 (antibody, name in Kabat numbering, V domains shown)
VH: B2 VH with Q52R, K55R, F57Y, H59Q
VL: B1 VL
notes: Isotype as printed: G1 fa
- Kd (human CD25 [3]): 0.244 nM
- ELISA fold improvement (human CD25 [4]): 3.91 fold

B10: Variant C11 (antibody, name in Kabat numbering, V domains shown)
VH: B2 VH with Q52S, R54K, K55R, F57Y, H59Q
VL: B1 VL
notes: Isotype as printed: G1 fa
- Kd (human CD25 [3]): 0.138 nM
- ELISA fold improvement (human CD25 [4]): 3.47 fold

B11: Variant C12 (antibody, name in Kabat numbering, V domains shown)
VH: B2 VH with Q52S, K55R, F57Y, H59Q
VL: B1 VL
notes: Isotype as printed: G1 fa
- Kd (human CD25 [3]): 0.155 nM
- ELISA fold improvement (human CD25 [4]): 3.98 fold

B12: Variant C28 (antibody, V domains shown)
VH: B2 VH with I48M, Q52N, R54S, K55S, F57Y, H59E
VL: B1 VL with S28K, N52D
notes: Isotype as printed: G2M3.QL
- Kd (human CD25 [5]): 0.054 nM
- Kit225 (fold improvement in inhibition of IL2-induced Kit225 proliferation) (human CD25 on cells): 2.8 fold
- PBMC (fold improvement in inhibition of IL2-induced PHA blast proliferation) (human CD25 on cells): 5.8 fold
- Kd (cynomolgous monkey CD25): 0.049 nM
- ELISA fold improvement (human CD25 [6]): 1.6 fold

B13: Variant C34 (antibody, V domains shown)
VH: B2 VH with I48M, Q52K, R54S, K55R, F57Y, H59E
VL: B1 VL with S28K, N52D
notes: Isotype as printed: G2M3.QL
- Kd (human CD25 [5]): 0.021 nM
- Kit225 (fold improvement in inhibition of IL2-induced Kit225 proliferation) (human CD25 on cells): 3.1 fold
- PBMC (fold improvement in inhibition of IL2-induced PHA blast proliferation) (human CD25 on cells): 6.4 fold
- Kd (cynomolgous monkey CD25): 0.088 nM
- ELISA fold improvement (human CD25 [6]): 7.8 fold

B14: Variant C35 (antibody, name in Kabat numbering, V domains shown)
VH: B2 VH with I48M, Q52K, R54S, K55R, F57Y, H59E
VL: B1 VL with N52E
notes: Isotype as printed: G2M3.QL
- Kd (human CD25 [5]): 0.034 nM
- Kit225 (fold improvement in inhibition of IL2-induced Kit225 proliferation) (human CD25 on cells): 3 fold
- PBMC (fold improvement in inhibition of IL2-induced PHA blast proliferation) (human CD25 on cells): 7.2 fold
- Kd (cynomolgous monkey CD25): 0.188 nM
- ELISA fold improvement (human CD25 [6]): 7 fold

B15: Variant C37 (antibody, name in Kabat numbering, V domains shown)
VH: B2 VH with I48M, Q52K, R54S, K55S, F57Y, H59E
VL: B1 VL with N52E
notes: Isotype as printed: G2M3.QL
- ELISA fold improvement (human CD25 [6]): 4.1 fold

B16: Variant C38 (antibody, name in Kabat numbering, V domains shown)
VH: B2 VH with I48M, Q52S, F57Y, H59E
VL: B1 VL
notes: Isotype as printed: G2M3.QL
- Kd (human CD25 [5]): 0.0095 nM
- Kit225 (fold improvement in inhibition of IL2-induced Kit225 proliferation) (human CD25 on cells): 3.6 fold
- PBMC (fold improvement in inhibition of IL2-induced PHA blast proliferation) (human CD25 on cells): 5.8 fold
- Kd (cynomolgous monkey CD25): 0.1 nM
- ELISA fold improvement (human CD25 [6]): 8.2 fold

B17: Variant C40 (antibody, name in Kabat numbering, V domains shown)
VH: B2 VH with I48M, Q52S, F57Y, H59E
VL: B1 VL with N52E
notes: Isotype as printed: G2M3.QL
- Kd (human CD25 [5]): 0.012 nM
- PBMC (fold improvement in inhibition of IL2-induced PHA blast proliferation) (human CD25 on cells): 7.7 fold
- Kd (cynomolgous monkey CD25): 0.074 nM
- ELISA fold improvement (human CD25 [6]): 6.8 fold

B18: Variant C41 (antibody, name in Kabat numbering, V domains shown)
VH: B2 VH with I48M, Q52S, K55S, F57Y, H59E
VL: B1 VL
notes: Isotype as printed: G2M3.QL
- Kit225 (fold improvement in inhibition of IL2-induced Kit225 proliferation) (human CD25 on cells): 2.5 fold
- ELISA fold improvement (human CD25 [6]): 6.1 fold

B19: Variant C43 (antibody, name in Kabat numbering, V domains shown)
VH: B2 VH with I48M, Q52S, K55S, F57Y, H59E
VL: B1 VL with N52E
notes: Isotype as printed: G2M3.QL
- ELISA fold improvement (human CD25 [6]): 4.2 fold

B20: NuhuTac (antibody, V domains shown)
VH: B1 VH
VL: EIVLTQSPATLSLSPGERATLTCSASSSISYMHWFQQKPGQAPRLLIYTTSNLASGIPARFSGSGSGTDYTLTISSLEPEDFAVYYCHQRSTYPLTFGQGTKVEIK
notes: rehumanization of mouse anti-Tac on frameworks R3.5H5G (VH) and ka3d1 (VL); also called rehumanized anti-Tac; rehumanized antibody
- EC50 [7]: 0.71 µg/mL
- EC50 [1]: 0.49 µg/mL

B21: daclizumab VH and NuhuTacVL (antibody, V domains shown)
VH: B2 VH with Q52N, R54S, K55T, F57Y, H59E
VL: B20 VL
notes: combination antibody
- EC50 [1]: 1.18 µg/mL

B22: daclizumab variant S76 (antibody, IgG1, name in Kabat numbering, V domains shown)
VH: B2 VH with I48L, Q52N, R54S, K55T, F57Y, H59E
VL: B1 VL
notes: IgG1; Kabat positions; also called I48L; DAC I48L
- Fold improvement (KD) (CD25 (recombinant) [8]): 0.9 fold over wild type
- Kd (CD25 (recombinant) [8]): 0.597 nM
- koff (CD25 (recombinant) [8]): 0.000222 s⁻¹
- kon (CD25 (recombinant) [8]): 372000 M⁻¹ s⁻¹
- ELISA (wt = 1) (CD25 (recombinant) [9]): 1.32 fold (wt = 1)

B23: daclizumab variant S78 (antibody, IgG1, name in Kabat numbering, V domains shown)
VH: B2 VH with I48V, Q52N, R54S, K55T, F57Y, H59E
VL: B1 VL
notes: IgG1; Kabat positions; also called I48V; DAC I48V
- Fold improvement (KD) (CD25 (recombinant) [8]): 1 fold over wild type
- Kd (CD25 (recombinant) [8]): 0.493 nM
- koff (CD25 (recombinant) [8]): 0.000183 s⁻¹
- kon (CD25 (recombinant) [8]): 371000 M⁻¹ s⁻¹
- ELISA (wt = 1) (CD25 (recombinant) [9]): 1.1 fold (wt = 1)

B24: DAC I48L (antibody, IgG1, name in Kabat numbering, V domains shown)
VH: B2 VH with I48L, Q52N, R54S, K55T, F57Y, H59E
VL: B1 VL
notes: E.HAT variant, IgG1/kappa
- Relative % KD [10]: 83%
- Relative % Potency [11]: 132%
- Kd [12]: 0.597 nM
- koff [12]: 0.000222 s⁻¹
- kon [12]: 372000 M⁻¹ s⁻¹

B25: DAC I48V (antibody, IgG1, name in Kabat numbering, V domains shown)
VH: B2 VH with I48V, Q52N, R54S, K55T, F57Y, H59E
VL: B1 VL
notes: E.HAT variant, IgG1/kappa
- Relative % KD [10]: 100%
- Relative % Potency [11]: 109%
- Kd [12]: 0.493 nM
- koff [12]: 0.000183 s⁻¹
- kon [12]: 371000 M⁻¹ s⁻¹
